Measured values taken from PMC5338832 (PLoS Pathogens, 2017).

Experiments:
T117v2 epitope-scaffold [1] = target: T1, T117v2 epitope-scaffold (synthetic construct (designed scaffold …)); assay: SPR; ProteOn XPR36, GLC chip with amine-coupled capture antibody (Human Antibody Capture Kit) for ligand capture; 1x HBS-EP+ pH 7.4 with 1 mg/ml BSA; Langmuir model; Table 1 heads the IgGs as 'Analyte'; settings: both partners purified
T1 construct: also called T117v2 scaffold; scaffolded MPER construct; source: expressed and purified as previously described [35]
T1 chain: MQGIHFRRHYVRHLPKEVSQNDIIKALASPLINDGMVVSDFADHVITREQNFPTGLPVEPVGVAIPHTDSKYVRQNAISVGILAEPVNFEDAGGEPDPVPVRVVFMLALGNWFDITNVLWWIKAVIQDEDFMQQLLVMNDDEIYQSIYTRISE

T117v2 epitope-scaffold [2] = target: T1, T117v2 epitope-scaffold; assay: SPR; settings: both partners purified

Row | Binder | Kd (T117v2 epitope-scaffold [1]) | koff (T117v2 epitope-scaffold [1]) | kon (T117v2 epitope-scaffold [1]) | Kd (T117v2 epitope-scaffold [2]) | koff (T117v2 epitope-scaffold [2]) | kon (T117v2 epitope-scaffold [2])
1 | 10E8 IgG mutant 3 (antibody, V domains shown, IgG; also called 10E8 mut 3; copies: 2 + 2) VH: EVQLVESGGGLVKPGGSLRLSCSASGFDFDNAWMTWVRQPPGKGLEWVGRITGPGEGWSVDYAAPVEGRFTISRLNSINFLYLEMNNLRMEDSGLYFCARTGKYYDFWSGYPPGEEYFQDWGRGTLVTVSS VL: SYELTQETGVSVALGDTVTITCEGDSLESHYASWYQKKPGQAPILLFYGDDNRPSGVPDRFSGDADGNEASLTIDGAQAEDDAEYYCSSRDKSGSRLSVFGGGTKLTVL | 0.379 nM | 0.000211 s⁻¹ | 559000 M⁻¹ s⁻¹ | – | – | –
2 | 10E8 IgG mutant 5 (antibody, V domains shown, IgG; also called 10E8 mut 5; copies: 2 + 2) VH: EVQLVESGGGLVKPGGSLRLSCSASGFDFDNAWMTWVRQPPGKGLEWVGRITGPGEGWSVDYAAPVEGRFTISRLNSINFLYLEMNNLRMEDSGLYFCARTGKYYDFWSGYPPGEEYFQDWGRGTLVTVSS VL: SYELTQETGVSVALGRTVTITCRGDSLASHAASWYQKKPGQAPILLFYGKNNRPSGVPDRFSGSASGNRASLTISGAQAEDDAEYYCSSRDKSGSRLSVFGGGTKLTVL | 0.123 nM | 0.00016 s⁻¹ | 1.3e+06 M⁻¹ s⁻¹ | – | – | –
3 | 10E8 IgG mutant 1 (antibody, V domains shown, also called 10E8 mut 1; copies: 2 + 2) VH: EVQLVESGGGLVKPGGSLRLSCSASGFDFDNAWMTWVRQPPGKGLEWVGRITGPGEGWSVDYAAPVEGRFTISRLNSINFLYLEMNNLRMEDSGLYFCARTGKYYDFWSGYPPGEEYFQDWGRGTLVTVSS VL: SYELTQETGVSVALGQTVTITCQGDSLRSHYASWYQKKPGQAPILLFYGKNNRPSGVPDRFSGSASGNTASLTISGAQAEDDAEYYCSSRDKSGSRLSVFGGGTKLTVL | 0.0112 nM | 4e-05 s⁻¹ | 3.57e+06 M⁻¹ s⁻¹ | – | – | –
4 | 10E8 IgG mutant 2 (antibody, V domains shown, IgG; also called 10E8 mut 2; copies: 2 + 2) VH: EVQLVESGGGLVKPGGSLRLSCSASGFDFDNAWMTWVRQPPGKGLEWVGRITGPGEGWSVDYAAPVEGRFTISRLNSINFLYLEMNNLRMEDSGLYFCARTGKYYDFWSGYPPGEEYFQDWGRGTLVTVSS VL: SYELTQETGVSVALGDTVTITCEGDSLESHYASWYQKKPGQAPILLFYGKNNRPSGVPDRFSGSASGNEASLTISGAQAEDDAEYYCSSRDKSGSRLSVFGGGTKLTVL | – | – | – | 0.0164 nM | 4.6e-05 s⁻¹ | 2.8e+06 M⁻¹ s⁻¹
